Earlier results on 2 substances are cited in paper PMC5871566.

Read-outs that look alike come from different tables or passages of the source.

Data set [1] deals with C4b (Homo sapiens) (UniProt P0C0L4).
Data set [2] has the same target. The source holds these as a separate data set.

UniProt P0C0L4, sequence (P0C0L4 20-1744, chain 1 of 2): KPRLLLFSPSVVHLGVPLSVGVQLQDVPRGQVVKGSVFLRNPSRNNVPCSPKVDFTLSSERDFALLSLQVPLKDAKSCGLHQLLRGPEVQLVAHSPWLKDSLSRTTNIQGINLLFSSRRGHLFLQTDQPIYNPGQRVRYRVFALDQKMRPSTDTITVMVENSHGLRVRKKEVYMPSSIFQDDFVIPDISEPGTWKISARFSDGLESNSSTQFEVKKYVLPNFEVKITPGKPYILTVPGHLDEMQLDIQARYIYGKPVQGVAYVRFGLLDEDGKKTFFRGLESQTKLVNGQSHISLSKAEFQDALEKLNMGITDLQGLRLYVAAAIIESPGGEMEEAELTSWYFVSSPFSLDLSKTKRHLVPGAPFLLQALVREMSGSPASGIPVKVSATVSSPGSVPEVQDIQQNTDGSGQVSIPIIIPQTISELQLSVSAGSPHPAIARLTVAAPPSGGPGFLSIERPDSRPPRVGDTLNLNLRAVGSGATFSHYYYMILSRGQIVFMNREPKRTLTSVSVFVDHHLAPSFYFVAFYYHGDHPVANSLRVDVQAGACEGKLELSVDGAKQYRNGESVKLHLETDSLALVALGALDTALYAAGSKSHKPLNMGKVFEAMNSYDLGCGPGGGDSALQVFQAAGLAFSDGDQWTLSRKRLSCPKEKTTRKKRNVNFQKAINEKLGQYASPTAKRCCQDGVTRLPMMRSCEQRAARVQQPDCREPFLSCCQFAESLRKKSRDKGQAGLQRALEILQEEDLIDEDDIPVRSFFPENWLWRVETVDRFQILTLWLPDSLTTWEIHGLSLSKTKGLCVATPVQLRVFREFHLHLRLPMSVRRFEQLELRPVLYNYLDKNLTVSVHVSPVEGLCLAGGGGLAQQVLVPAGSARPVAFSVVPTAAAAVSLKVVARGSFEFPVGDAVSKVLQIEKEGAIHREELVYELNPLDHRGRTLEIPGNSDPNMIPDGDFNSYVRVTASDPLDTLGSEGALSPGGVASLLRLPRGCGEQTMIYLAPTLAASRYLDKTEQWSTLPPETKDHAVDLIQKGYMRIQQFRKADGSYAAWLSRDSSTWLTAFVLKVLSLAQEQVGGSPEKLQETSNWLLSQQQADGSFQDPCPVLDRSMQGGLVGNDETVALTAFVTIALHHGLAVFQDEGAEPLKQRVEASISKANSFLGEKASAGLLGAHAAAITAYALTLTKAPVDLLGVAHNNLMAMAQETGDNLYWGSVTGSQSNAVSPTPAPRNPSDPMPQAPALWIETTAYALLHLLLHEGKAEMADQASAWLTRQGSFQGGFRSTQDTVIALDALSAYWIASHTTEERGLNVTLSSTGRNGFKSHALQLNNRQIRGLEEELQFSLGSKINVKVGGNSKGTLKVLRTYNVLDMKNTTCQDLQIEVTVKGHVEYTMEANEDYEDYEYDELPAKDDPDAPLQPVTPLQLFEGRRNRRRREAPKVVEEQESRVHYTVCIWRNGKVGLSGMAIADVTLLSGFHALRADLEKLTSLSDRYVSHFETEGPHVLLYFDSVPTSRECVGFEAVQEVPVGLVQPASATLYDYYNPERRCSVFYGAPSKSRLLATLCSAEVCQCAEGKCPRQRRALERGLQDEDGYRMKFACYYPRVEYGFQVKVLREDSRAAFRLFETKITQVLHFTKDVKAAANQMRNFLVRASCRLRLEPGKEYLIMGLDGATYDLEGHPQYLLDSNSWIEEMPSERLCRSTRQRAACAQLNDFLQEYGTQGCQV
UniProt P0C0L4, sequence (P0C0L5 20-1744, chain 2 of 2, further chain): as the sequence (P0C0L4 20-1744, chain 1 of 2) above, with A888T, D1054G, P1101L, C1102S, L1105I, D1106H, N1157S, V1188A, L1191R, S1267A counted along it

The Kd is the free concentration of one partner at which half of the binding sites on the other are occupied at equilibrium, for simple one-to-one binding. In the case of Eap34 domains 3-4 (from UniProt Q99QS1), the Kd in data set [1] is 0.525 µM.

As for “Eap individual domains (domain 3 or 4) domain 3 or domain 4 (from UniProt Q2FWW1)”, the Kd in data set [2] is 40 µM.
